Ends that are not written are not given here.
Target: anti-SPAPP monoclonal antibody CM61
Assay: competition EIA: SPAPP in 83% human plasma competes with plate-coated SPAPP for 10 ng/ml CM61

B1: amyloid precursor protein signal peptide (SPAPP), …-COOH (peptide)
peptide: MLPGLALLLLAAWTARA-OH
Question: How did the lowest antigen concentration detectable by competition turn out when B1 was run?
Answer: > 200 pg/mL

From patent US20140072592A1
